# Data published in publication PMC5980995, “An allostatic mechanism for M2 pyruvate kinase as an amino-acid sensor” (Biochemical Journal, 2018).
# Molecular target: M2 isoenzyme of pyruvate kinase (M2PYK), human, N-terminal His6 tag (human) (UniProt P14618)
# Assay: SEC; analytical gel chromatography, Superdex 200 PC 3.2/30, 0.1 ml/min; protein diluted from 20 mg/ml to 0.1 mg/ml and incubated up to 12 h (overnight) at room temperature in PBS-CM pH 7.4, without or with 10 mM serine, phenylalanine, alanine or tryptophan; apparent constant, tetramer to monomers
# Chain of M2 isoenzyme of pyruvate kinase (M2PYK), human, N-terminal His6 tag, P14618 1-531 (enzyme; other documents disagree on this pair) (P14618 whole entry): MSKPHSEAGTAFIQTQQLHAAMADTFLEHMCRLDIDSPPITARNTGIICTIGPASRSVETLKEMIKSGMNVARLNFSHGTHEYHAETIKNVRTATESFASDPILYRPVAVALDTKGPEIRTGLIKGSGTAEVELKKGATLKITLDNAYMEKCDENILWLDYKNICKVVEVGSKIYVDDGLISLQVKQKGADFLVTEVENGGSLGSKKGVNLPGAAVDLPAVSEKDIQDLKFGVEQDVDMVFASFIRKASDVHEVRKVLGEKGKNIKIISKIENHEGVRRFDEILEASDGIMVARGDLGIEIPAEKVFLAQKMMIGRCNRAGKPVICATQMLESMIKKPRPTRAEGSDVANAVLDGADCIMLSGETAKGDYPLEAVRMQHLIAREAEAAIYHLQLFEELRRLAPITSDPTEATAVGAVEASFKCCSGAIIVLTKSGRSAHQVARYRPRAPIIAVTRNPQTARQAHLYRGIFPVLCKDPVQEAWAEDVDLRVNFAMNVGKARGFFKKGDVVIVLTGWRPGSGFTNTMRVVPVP
substance,measurement,value
"M2 isoenzyme of pyruvate kinase (M2PYK), human, N-terminal His6 tag, P14618 1-531 (enzyme; other documents disagree on this pair)",Kd,900 nM
